Laboratory results reported in the DeepSol protein solubility set.

Assay: soluble on expression in E. coli; label from the status in PepcDB or PDB records

| Sequence | soluble on expression in E. coli |
| --- | --- |
| MQLTESLGIVLFNRNYREDDKLVKIFTEVAGKQMFFVKHISRSKMSSIIQPLTIADFIFKLNDTGLSYVVDYSNVNTYRYINNDIFRLAYASYVLALADAAIADNESDSHLFTFLKKTLDLMEEGLDYEILTNIFEIQILDRFGISLNFHECAICHRTDLPLDFSHRFSAVLCSEHYYKDNRRNHLDPNVIYLLSRFQKITFDDLRTISLNKDIKKKLRQFIDELYHDYVGIKLKSKTFIDNLVKWGDIMK | not soluble |
| MQLTPLQQAKPEKEEISPYAINNILSSTQSSPDNGNEADDKENSSVRRNTFPASSASTKKPRGTPYDRTNTPMTVVPQMPQFAPDFSNYNLTMNAWSEFFKKDRCMVCGDNSTGYHYGVQSCEGCKGFFRRSVHKNIAYVCTKGENCTFSYENCAANRGVRTRCQACRFAKCLAVGMNRDNVRVNKETDKDVKPSVASPNFEMTSQVKELTAAFVANMPCSTHLTSGTHAIGAIKKFIESVPALSSLLPKDEKALEMSIQKVMSGILAIRAAFTFDPITFYSCENPVNLLRGGIRNTVFNDCEVALLSGIHILQIVNGGVAEIFTSYCQGLRHQLSQTHLQEIGLCDRLLMRLGPYLNQ | not soluble |
| MQMLDRLESEILADRVSEESRRWLASCGLTVEQMKNQMDPVYTPARKIHLYHCDHRGLPLALISTEGATAWCAEYDEWGNLLSDENPHHLQQLIRLPGQQYDEESGLYYNRHRYYDPLLGRYITQDPIGLKGGWNFYQYPLNPVINVDPQGLVDINLYPESDLIHSVADEINIPGVFTIGGHGTPTSIESATRSIMTAKDLAYLIKFDGNYKDGMTVWLFSCNTGKGQNSFAS | soluble |
| MQPDNYFILAQKPITEPSASVMGQVKNDVKKEEPKNEEKKPGDENKNPAAVGAEGAGAAEKPQDKSQKPFPEIKMPTESMKKKKNTDNEIDKRKKMKTGFYQEKSDEDDTLEKIESLKVEQSDKTKKSQKKKLTLENGEKKV | not soluble |
| MQPQKNVTNKIAIHATTATVWDALVNPAKTKVYMFGCETVSDWKVGSELLWRGQHEGEDMVFVKGKILAIKPNKLLTYTVIDPFASYPDIPENYLNVTYKLEEQGPDTILTVTQDGFESAADGEKRYQDVNNKGEGWNPILVQIKALVESIQNLEHHHHHH | soluble |
| MQPQSVLHSGYLHPLLRAWQTATTTLNASNLIYPIFVTDVPDDIQPITSLPGVARYGVKRLEEMLRPLVEEGLRCVLIFGVPSRVPKDERGSAADSEESPAIEAIHLLRKTFPNLLVACDVCLCPYTSHGHCGLLSENGAFRAEESRQRLAEVALAYAKAGCQVVAPSDMMDGRVEAIKEALMAHGLGNRVSVMSYSAKFASCFYGPFRDAAKSSPAFGDRRCYQLPPGARGLALRAVDRDVREGADMLMVKPGMPYLDIVREVKDKHPDLPLAVYHVSGEFAMLWHGAQAGAFDLKAAVLEAMTAFRRAGADIIITYYTPQLLQWLKEE | soluble |
| MQPTETSQPAPSDQGRRLKDQLSESMSFSSQMKKEDDELSMKALSAFKAKEEEIEKKKMEIRERVQAQLGRVEDESKRLAMIREELEGFADPMRKEVTMVRKKIDSLDKELKPLGNTVQKKETEYKDALEAFNEKNKEKVELITKLQEGESEKFRFKKLEELSKNIDLTKP | not soluble |
| MQQYAQRDKKHEYWFAVPQERTDHLYAFFIQWSPEIYAEDTGEYTREPGFIVVKKIEESETIEDSSNQAAAREWEITTREDINSKQVATVKADLESESFRPNLSDPSELLLPDQIEKLTKHLPPRTIGYPWTLVYGTGKHGTSLKTLYRTMTGLDTPVLMVIKDSDGQVFGALASEPLKVSDGFYGTGETFVFTFCPEFEVFKWTGDDMFFIKGDMDSLAFGGGGGEFALWLDGDLYHGRSHSCKTFGNRTLSKKEDFFIQDIEIWAFELEHHHHHH | not soluble |
| MQRFLDSISAATQAKSPAEHETLVAMADLYAIITCVEYLERAWRANAVSDEDYTRNCSRLIAQFRATRQLVMDDVPSVISFLEEYHLAARAAMNRLQVGVPATVEHANSSDETRRRNFTAAAIQATEAFLTFRDALELGERSVDRLLPYLREILLVLGRMGAVFGTADGDATVQRERIVQWVRRLDAMHAYEQITEEDKRQLAHDVDTLYDTFRRRVGELEM | not soluble |
| MQRKGDTPATLDLFADQTPQPRRDEQIGPGSWLFSGFALPAMPTLLLALEQTLGHSPFRHMLTPGGLSMSAALSSCGPLGWITDRHGYRYSDVDPQTGQPWPAMPDAFMQLAQSAALAAGYRGFVPDACLINRYIPGAKMSLHQDKDEHDHRWPVVSVSLGIPAIFQFGGMQRSDKTRRISLFHGDVVVWGGEDRLRFHGILPIKQAEHPLLGEQRINLTFRKAGRDSLEHHHHHH | soluble |
| MQRKLKVTSLEPGTVVITEQAVDTCFKAEFEQIVLGKRVIRKTDLNKKLVQELLLCSAELSEFTTVVGNTMCTLDFYEGQGRLDGALCSYTEKDKQAYLEAAYAAGVRNIEMESSVFAAMCSACGLQAAVVCVTLLNRLEGDQISSPRNVLSEYQQRPQRLVSYFIKKKLSKA | not soluble |
| MQRTLNVGVILCESFISNAQNPVNSYIKIYENVRMFEFAIKLLQESRINFQKILLYVLEEQIPLVEKVVAKYENCWVFRSKHNEVEDIYEAKGFIEDKYKIGLKSSKNQASSYYDNCCFVVLEACRPLTSKKVVKNVYEKAMIDGAAVAVLPFERQLVCGDNTKAVRQLKDKGNMNYWRQSSTWELQFPQAYTLNKLNQYHKNLFMKARNMLDLMNISAKNPLSIVDGSAYSFRVVTSLDFEILLGILRNG | not soluble |
| MQRVTITLDDDLLETLDSLSQRRGYNNRSEAIRDILRSALAQEATQQHGTQGFAVLSYVYEHEKRDLASRIVSTQHHHHDLSVATLHVHINHDDCLEIAVLKGDMGDVQHFADDVIAQRGVRHGHLQCLPKED | soluble |
